According to patent US20220411517A1 (LEO PHARMA A S, published 2022):

T1: human IL1RAcP domain 1 (AG-12335) (human)
T1 construct: also called domain 1 of human IL-1RAcP
T1 chain: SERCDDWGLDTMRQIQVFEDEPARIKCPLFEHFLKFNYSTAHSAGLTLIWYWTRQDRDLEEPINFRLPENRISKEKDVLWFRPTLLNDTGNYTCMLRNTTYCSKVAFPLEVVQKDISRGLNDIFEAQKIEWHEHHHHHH

T2: human IL1RAcP domain 3 (AG-12127) (human)
T2 construct: also called domain 3 of human IL-1RAcP
T2 chain: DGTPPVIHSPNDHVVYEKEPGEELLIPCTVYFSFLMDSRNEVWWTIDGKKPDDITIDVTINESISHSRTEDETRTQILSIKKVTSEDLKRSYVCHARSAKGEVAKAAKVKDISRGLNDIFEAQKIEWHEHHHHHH

B1: Y024149_h_IgG1f_AEASS (antibody, V domains shown)
VH: EVQLVESGGGLVQPGGSLRLSCAASGGTFGGSAMHWVRQAPGKGLVWVSRILTYGGIATYAESVKGRFTISRDNAKNTLYLQMNSLRAEDTAVYYCARGSSEYPKFDIWGQGTLVTVSS
VL: DIQMTQSPSTLSASVGDRVTITCRASQSISSWLAWYQQKPGKAPKLLIYDASSLESGVPSRFSGSGSGTEFTLTISSLQPEDFATYYCHQLLIYPHTFGQGTKVEIKR
notes: Human IgG1f with AEASS effector-silencing residues, kappa light chain
B2: R001032 (1A05) (antibody, human IgG1, kappa, V domains shown)
VH: LEQSGGGAEGGLVKPGGSLELCCKASGFSLSTSYWRCWVRQAPGKGLEWIGCIYAGSGDVTYYANWVNGRFTLSRDIDQSTGCLQLNSLTAADTAMYYCASGVGFGYFNLWGQGTLVTVSS
VL: ALVMTQTPSPVSAAVGGTVTINCQASEDIYSNLAWFQQKPGQPPKLLIYDASTLASGVPSRFSGSGSGTEFTLTISGLQSDDAATYYCLGVYTHISADNAFGGGTEVVVKR
notes: Rabbit variable domains of prior art 1A05 on human IgG1 kappa constant regions with AEASS; also called P013.S.01.B.A05
B3: Y024148_h_FabCys-AviH (Fab, V domains shown)
VH: EVQLVESGGGLVQPGGSLRLSCAASGGTIGGSAVHWVRQAPGKGLVWVSRILTYSSTTQYAESVKGRFTISRDNAKNTLYLQMNSLRAEDTAVYYCARGSSEYPKFDIWGQGTLVTVSS
VL: DIQMTQSPSTLSASVGDRVTITCRASQSISSWLAWYQQKPGKAPKLLIYDASSLESGVPSRFSGSGSGTEFTLTISSLQPEDFATYYCHQLLIYPHTFGQGTKVEIKR
notes: Disulphide-linked Fab with Avi and His tags; also called Y024148 in FabCys-AviHis format
B4: Y024149_h_FabCys-AviH (Fab, V domains shown)
VH: EVQLVESGGGLVQPGGSLRLSCAASGGTFGGSAMHWVRQAPGKGLVWVSRILTYGGIATYAESVKGRFTISRDNAKNTLYLQMNSLRAEDTAVYYCARGSSEYPKFDIWGQGTLVTVSS
VL: DIQMTQSPSTLSASVGDRVTITCRASQSISSWLAWYQQKPGKAPKLLIYDASSLESGVPSRFSGSGSGTEFTLTISSLQPEDFATYYCHQLLIYPHTFGQGTKVEIKR
notes: Disulphide-linked Fab with Avi and His tags; also called Y024149 in FabCys-AviHis format

Key:
[1] = biological target: T1, human IL1RAcP domain 1 (AG-12335); experiment: ELISA on directly coated human IL-1RAcP domain 1 (AG-12335), IgG titrated, S/BG
Experimental: All were assessed with direct coating of the antigen. […] An anti-His antibody served as positive control.

[2] = biological target: T3, hIL-1RAP(1-367)_F-chLys_Avi (human, biotinylated (Avi tag) in SPR and ELISA binning; unlabeled in SET); experiment: solution equilibrium titration (SET), ECL read-out, IgG
T3 construct: also called human IL-1RAcP (AG-12210)
Experimental: (§1) MSD SulfoTAG™ NHS-Ester (Meso Scale Diagnostics) according to the manufacturer's instructions. […] Serial dilutions of unlabeled antigen were prepared, starting with a concentration at least 10 times higher than the expected KD. Wells without antigen were used to determine Bₘₐₓ values;
(§2) wells containing only assay buffer were used to determine background. […] MSD plates were coated with antigen on standard plates (30 μL per well). After washing the plate with PBS with 0.05% Tween 20, the equilibrated samples were transferred to the plates and incubated for 20 min. […] After washing the MSD plate and adding 30 μL/well MSD Read Buffer T with surfactant, electrochemiluminescence signals were detected using a MESO SECTOR S 600 (Meso Scale Diagnostics).
(§3) The data was evaluated with XLfit (IDBS) software applying customized fitting models.

recombinant rat IL-1RAcP = recombinant rat IL-1RAcP (rat, UniProt Q63621 21-367, limits assumed); experiment: ELISA (FIG. 1-3 cited)
[3] = biological target: T4, human IL1RAcP domain 1/2 (AG-12337) (human); experiment: ELISA on directly coated human IL-1RAcP domain 1/2 (AG-12337), IgG1f_AEASS titrated, S/BG
T4 construct: also called domain 1/2 of human IL-1RAcP

[4] = biological target: T5, cyIL-1RAP(1-367)_F-chLys_Avi (cynomolgus, biotinylated (Avi tag) in SPR; unlabeled in SET); experiment: solution equilibrium titration (SET), ECL read-out, IgG
T5 construct: cynomolgus IL-1RAcP (21-367) is UniProt A0A2K5X5J5; also called cynomolgus IL-1RAcP (AG-12211)
Experimental: as §1, §2, §3

[5] = biological target: T6, cynomolgus IL-1RAcP on cells (cynomolgus, UniProt A0A2K5X5J5 21-570); experiment: cell-based or functional assay
human IL-1RAcP on cells [6] = biological target: T7, human IL-1RAcP on cells (human, UniProt Q9NPH3 21-570); experiment: cell-based or functional assay
[7] = biological target: T5, cyIL-1RAP(1-367)_F-chLys_Avi; experiment: SET, ratio of KD values
[8] = biological target: T3, hIL-1RAP(1-367)_F-chLys_Avi; experiment: SET, ratio of KD values
[9] = biological target: T6, cynomolgus IL-1RAcP on cells; experiment: cell-based or functional assay; remark: listed apart in the source
human IL-1RAcP on cells [10] = biological target: T7, human IL-1RAcP on cells; experiment: cell-based or functional assay; remark: listed apart in the source
human IL-1RAcP on cells [11] = biological target: T7, human IL-1RAcP on cells; experiment: flow cytometry on primary human dermal fibroblasts expressing endogenous IL-1RAcP (FIG. 4-1)
Experimental: Cell suspensions were transferred into microtiter plates and antibody samples were added followed by subsequent incubation of plates at 4° C. for 3 hours. Following incubation, cells were washed several time with FACS buffer.

[12] = biological target: T2, human IL1RAcP domain 3 (AG-12127); experiment: ELISA on directly coated human IL-1RAcP domain 3 (AG-12127), IgG titrated, S/BG
[13] = biological target: T8, mouse (AG-12212) IL-1RAcP (mouse, UniProt Q61730 21-367, limits assumed); experiment: ELISA, Fc-capture mode of the IgGs (FIG. 1-3)
T8 construct: Recombinant tagged antigen; also called recombinant mouse IL-1RAcP; mouse IL-1RAP
Text: (§4) Bound antibodies were detected using respective alkaline-phosphatase (AP) coupled secondary antibodies in combination with ‘AttoPhos’ fluorescence substrate. Multiple washing steps have been performed in between individual assay steps.

[14] = biological target: T3, hIL-1RAP(1-367)_F-chLys_Avi; experiment: ELISA on human IL-1RAcP (AG-12210), IgG1f_AEASS titrated 0.007-200 nM, AP-coupled secondary antibody with AttoPhos, signal over background (S/BG)
Text: as §4

human IL-1RAcP on cells [15] = biological target: T7, human IL-1RAcP on cells; experiment: FACS on Flp-In CHO cells over-expressing human IL-1RAcP, IgG1f_AEASS titrated 1e-12 to 2e-7 M, median FL2-H over background
[16] = biological target: T8, mouse (AG-12212) IL-1RAcP; experiment: ELISA in Fc-capture mode of the IgGs, mouse IL-1RAcP (AG-12212), S/BG
Text: as §4

[17] = biological target: T5, cyIL-1RAP(1-367)_F-chLys_Avi; experiment: ELISA on cynomolgus IL-1RAcP (AG-12211), IgG1f_AEASS titrated 0.007-200 nM, AP-coupled secondary antibody with AttoPhos, signal over background (S/BG)
Text: as §4

[18] = biological target: T3, hIL-1RAP(1-367)_F-chLys_Avi; experiment: ELISA binning; competitor: coated CAN04 FabCys-AviHis; 1.5 nM biotinylated human IL-1RAcP (AG-12210) pre-incubated with the titrated Fab; captured IL-1RAcP detected with streptavidin-AP
Experimental: (§5) Epitope binning was performed using an ELISA-based competition assay. The experiments were performed using either IgG1f_AEASS or FabCys-AviHis. Antibodies were diluted to three (3) nM (for IgGs) or to 20 nM (in case of Fabs) in PBS. […] The next day 90 μL/well blocking solution (5% BSA in PBS) was added to the plate followed by an incubation at RT for at least 1 h. During incubation, the competing antibodies, including reference and negative control antibodies, were diluted in assay buffer (1xPBS, 0.5% BSA, 0.02% Tween). […] Following the incubation of the blocking solution, the ELISA plates were washed 3× with PBST. Subsequently, 20 μl/well of the prepared antibody/antigen solution was transferred to the wells and incubated for 30 min with gentle agitation. Subsequently, plates were washed 3× using PBS-T.
(§6) For detection 20 μl of a prepared streptavidin-alkaline phosphatase conjugate solution was added to the wells in order to detect bound biotinylated human IL-1RAcP. Incubation happened for 30 min with gentle agitation. Following the incubation with streptavidin-alkaline phosphatase conjugate, assay plates were washed 5× with PBS-T. Then 20 μl of AttoPhos substrate (diluted 1:5 in H₂O) was added to the wells. Plates were incubated for 10 min at RT and readout happened using a Tecan M1000 Pro Reader.
(§7) Every graph represents an individual first antibody in the FabCys-AviHis format coated on the surface. […] Subsequently, preformed antigen antibody complex was added to the respective wells with the surface coated first antibody. Detection happened via the biotin of IL-1RAcP using a streptavidin-alkaline phosphatase conjugate.

[19] = biological target: T5, cyIL-1RAP(1-367)_F-chLys_Avi; experiment: SPR (Biacore), biotinylated antigen captured, FabCys-AviHis as analyte, 1:1 fit; comment: Koff approaching assay limit
Experimental: (§8) Approximately 3000 RU capture reagent was bound. This surface was used to load biotinylated antigen to generate a low-density surface for subsequent kinetic characterization (approx. 60-100 RU antigen loaded). […] After injecting the last and highest analyte concentration, a long dissociation phase was recorded. […] A blank injection of assay buffer (HBS-EP+) following the same injection pattern as described above was recorded and subtracted from specific sensorgrams during analysis (double referencing). At the end of each cycle, the sensor was regenerated with one 120 s injection of 6 M guanidine hydrochloride in 250 mM NaOH, which completely removed capture reagent with loaded biotinylated antigen and bound Fab fragments. The obtained sensorgrams were fitted to a monovalent binding model using Biacore Insight Evaluation Software. The obtained values for rate constants kₒₙ and koff were used to calculate KD.

[20] = biological target: T3, hIL-1RAP(1-367)_F-chLys_Avi; experiment: SPR (Biacore), biotinylated antigen captured, FabCys-AviHis as analyte, 1:1 fit
Experimental: as §8

[21] = biological target: T3, hIL-1RAP(1-367)_F-chLys_Avi; experiment: ELISA binning; competitor: coated Y024084 FabCys-AviHis (sheet title Y024084_FAB COATED); 1.5 nM biotinylated human IL-1RAcP (AG-12210) pre-incubated with the titrated Fab; captured IL-1RAcP detected with streptavidin-AP
Experimental: as §5, §6, §7

[22] = biological target: T3, hIL-1RAP(1-367)_F-chLys_Avi; experiment: ELISA binning; competitor: coated Y024148 FabCys-AviHis; 1.5 nM biotinylated human IL-1RAcP (AG-12210) pre-incubated with the titrated Fab; captured IL-1RAcP detected with streptavidin-AP
Experimental: as §5
For detection 20 μl of a prepared streptavidin-alkaline phosphatase conjugate solution was added to the wells in order to detect bound biotinylated human IL-1RAcP. Incubation happened for 30 min with gentle agitation. Following the incubation with streptavidin-alkaline phosphatase conjugate, assay plates were washed 5× with PBS-T. Then 20 μl of AttoPhos substrate (diluted 1:5 in H₂O) was added to the wells. Plates were incubated for 10 min at RT and readout happened using a Tecan M1000 Pro Reader. […]

[23] = biological target: T5, cyIL-1RAP(1-367)_F-chLys_Avi; experiment: SPR (Biacore), biotinylated antigen captured, FabCys-AviHis as analyte, 1:1 fit; comment: Koff at assay limit
Experimental: as §8

[24] = biological target: T3, hIL-1RAP(1-367)_F-chLys_Avi; experiment: ELISA binning; competitor: coated Y024149 FabCys-AviHis (sheet title Y024149_FAB COATED); 1.5 nM biotinylated human IL-1RAcP (AG-12210) pre-incubated with the titrated Fab; captured IL-1RAcP detected with streptavidin-AP
Experimental: as §5, §6, §7

Row | Binder | binding result [1] | Kd [2] [nM] | EC50 (read off the curve) [3] [nM] | Kd [4] [nM] | IC50, IL-8 release, CyDFa stimulated with cynomolgus IL-1β [5] [nM] | IC50, IFNγ release, PBMC stimulated with IL-1β (human IL-1RAcP on cells [6]) [nM] | IC50, IFNγ release, PBMC stimulated with IL-33 (human IL-1RAcP on cells [6]) [nM] | IC50, IL-8 release, HDFa stimulated with IL-1α (human IL-1RAcP on cells [6]) [nM] | IC50, IL-8 release, HDFa stimulated with IL-36α (human IL-1RAcP on cells [6]) [nM] | IC50, IL-8 release, HDFa stimulated with IL-36β (human IL-1RAcP on cells [6]) [nM] | IC50, IL-8 release, HDFa stimulated with IL-36γ (human IL-1RAcP on cells [6]) [nM] | IC50, IL-8 release, HEKa stimulated with IL-1β (human IL-1RAcP on cells [6]) [nM] | IC50, IL-8 release, HEKa stimulated with IL-36β (human IL-1RAcP on cells [6]) [nM] | binding result [12] | IC50 (read off the curve) [18] [nM] | Kd [20] [nM] | also measured
1 | B1 | no binding (tested: 2e-7 M) | 0.003 | ~5 | 0.001 | 0.032 | 1.7 | 0.2 | 1.1 | 0.039 | 0.06 | 0.026 | 31 | 0.094 | no binding (tested: 2e-7 M) |  |  | binding result (recombinant rat IL-1RAcP): no binding; fold stronger KD than reference R001031 (CAN04) [7]: ~16 fold; fold stronger KD than reference R001032 (1A05) [7]: ~15 fold; fold stronger KD than reference R001031 (CAN04) [8]: ~7 fold; fold stronger KD than reference R001032 (1A05) [8]: ~3.5 fold; IC50, IFN-γ release, cynomolgus whole blood stimulated with 300 ng/ml rcIL-33 [9]: ~15 nM; IC50, IL-6 release, cynomolgus whole blood stimulated with 50 ng/ml rcIL-1β [9]: ~50 nM; IC50, IL-6 release, cynomolgus whole blood stimulated with IL-1β [9]: ~70 nM; IC50, IL-6 release, human whole blood stimulated with 1 ng/ml rhIL-1β (human IL-1RAcP on cells [10]): ~10 nM; IC50, IL-6 release, human whole blood stimulated with 5 ng/ml rhIL-1β (human IL-1RAcP on cells [10]): ~8 nM; IC50, IL-6 release, human whole blood stimulated with 10 ng/ml rhIL-1β (human IL-1RAcP on cells [10]): ~20 nM; EC50 (human IL-1RAcP on cells [11]): 1.48 nM; binding result [13]: no binding
2 | B2 | no binding (tested: 2e-7 M) | 0.011 | ~4 | 0.015 | 0.48 | 5 | 1.8 | 24 | 0.05 | 0.15 | 0.067 | 162 | 0.12 | no binding (tested: 2e-7 M) |  |  | EC50 (read off the curve) [14]: 0.1 to 0.2 nM; EC50 (read off the curve) (human IL-1RAcP on cells [15]): ~2 nM; binding result [16]: no binding (tested: 200 nM); EC50 (read off the curve) [17]: 0.1 to 0.2 nM
3 | B3 |  |  |  |  |  |  |  |  |  |  |  |  |  |  | ~1 | 0.018 | Kd [19]: 0.008 nM
4 | B4 |  |  |  |  |  |  |  |  |  |  |  |  |  |  | ~1 | 0.025 | IC50 (read off the curve) [21]: ~0.7 nM; IC50 (read off the curve) [22]: ~0.7 nM; Kd [23]: 0.006 nM; IC50 (read off the curve) [24]: ~0.7 nM
